The record followed here is paper PMC5082683 (PLoS Pathogens, 2016).

The experiment deals with recombinant ectodomain of Gc (rGc) from Hantaan virus strain 76-118 (Hantaan virus strain 76-118, UniProt P08668). The experiment in a line: SEC-MALS; Gc mixed with an excess of scFv A5, Tris pH 8. The note with it: both partners purified. Background: Size exclusion chromatography separates by hydrodynamic size, large species first.

What is called stoichiometry N is a count of units in the complex or per binding partner.

B1: scFv A5 (scFv, V domains shown)
VH: QVQLQESGPGLVKPSETLSLTCVVSGGSISSSNWWSWVRQPPGKGLEWIGEIYHSGSPNYNPSLKSRVTISVDKSKNQFSLKLSSVTAADTAVYYCARQMRQWGQGTLVTVSS
VL: SSELTQDPAVSVALGQTVRITCQGDSLRSYYASWYQQKPGQAPVLVIYGKNNRPSGIPDRFSGSSSGNTASLTITGAQAEDEADYYCNSRDSSGNHNVFGGGTKLTVL
notes: also called human single-chain variable domain antibody fragment A5
For the molecule B1, the “stoichiometry N” value was determined as 1.
